Test [1] has as its target human membrane bound IgM with kappa light chain (mIgM-kappa) (human, UniProt P01871 1-474). Briefly: cell-based or functional assay.
In test [2] the target is T1, mIgG proximal domain peptide ELQLEESCAEAQDGELDG (human).
T1 construct: also called mIgG-PD; 18-mer mIgG
T1 peptide: ELQLEESCAEAQDGELDG
As to the kind of experiment: competition ELISA, block 'Blocked by mAb 1', mIgG-PD. Background: ELISA stands for enzyme-linked immunosorbent assay.

Sequence of human membrane bound IgM with kappa light chain (mIgM-kappa) (P01871 whole entry, the tested form may be a part): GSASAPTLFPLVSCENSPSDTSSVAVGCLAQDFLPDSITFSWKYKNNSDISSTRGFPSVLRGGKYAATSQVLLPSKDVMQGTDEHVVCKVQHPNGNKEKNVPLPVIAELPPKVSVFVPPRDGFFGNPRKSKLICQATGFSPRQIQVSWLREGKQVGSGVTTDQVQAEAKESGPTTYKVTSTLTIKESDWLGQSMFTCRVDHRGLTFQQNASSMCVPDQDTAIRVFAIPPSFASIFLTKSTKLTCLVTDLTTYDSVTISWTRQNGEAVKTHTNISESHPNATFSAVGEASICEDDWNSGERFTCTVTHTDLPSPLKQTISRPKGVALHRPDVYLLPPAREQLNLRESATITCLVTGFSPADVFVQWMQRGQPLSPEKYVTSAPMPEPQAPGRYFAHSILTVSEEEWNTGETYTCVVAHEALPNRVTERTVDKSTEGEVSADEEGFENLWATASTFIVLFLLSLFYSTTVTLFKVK

B1: monoclonal antibody mAb4-2b (antibody, mouse IgG1, V domains shown)
VH: EVQLEESGAELVKPGASLKLSCKASGYTFTSYWMNWVKQRPGQGLEWIGIIHPNSGSTNYNEKFKTKATLTVDKSSSTAYMQLSSLTSEDSAVYYCARTRGNYGMDYWGQGTSVTVSS
VL: DIVMTQSHKFMSTSVGDRVSITCKASQDVSTAVAWYQQKPGQSPTLLIYSASYRNTGVPDRFTGSGSGTDFTFTISSVQAEDLAVYYCQQHFSIPPLTFGAGTKLELKR
Consider B1, for which the “clonogenic capacity of CA 46” value in test [1] came out at 100 fold. The binding result in test [2] is reported as “no binding”.

The values are drawn from patent US20160304625A1 (WELT BIO MOLECULAR PHARMACEUTICAL, published 2016).
